{"source": "the nanobody polyreactivity screen of Harvey et al. (2022)", "data": [{"experiment": "yeast display, Sf9 membrane polyspecificity reagent, FACS + sequencing; frameworks hold sequencing errors", "method_in_brief": "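Galactose-induced (36–48 hours) yeast carrying a synthetic nanobody display library were exposed to 10% biotinylated, detergent-solubilized Sf9 membrane reagent at 4 °C for 1 hour. FACS followed streptavidin microbead enrichment, using low and high (top ~1%) gates for expression (anti-HA) and reagent binding (streptavidin). Colony PCR, MiSeq 2 × 250 sequencing and CDR-length filtering followed. Labels for polyreactivity reflect the gate of origin.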", "values": [{"sequence": "QVQLVESGGGLVQAGGSLRLSCAASGSILTYNFMGWYRQAPGKERELVASISWSGGRTYYADSVKGRFTISRDNAKNTVYLQMNSLKPEDTAAAYCAVSQSWYWYYASDYWGQGTQVTVSS", "polyreactivity (PSR sort gate)": "low polyreactivity"}, {"sequence": "QVQHVESGGGLVQAGGSLRLSCASSGITFPDYSMGWYRQAPGKERELVAGISSTGDSTYYADSVKGRFTISRDNGKKTVYLQMNSLKPEDTAVYYCNAAQERPIIILFSKYDYWGQGTQVTVSS", "polyreactivity (PSR sort gate)": "low polyreactivity"}, {"sequence": "QVQLEESGGGLVQAGGSLRLSCAASGRIFWGYAMGWYRQAPGKERELVAGITYSGGSTYYADSVKGRFTISRDNAKNTVYLQMNSLKPEDTAVYYCAADATPGRGVDYWGQGTQVTVSS", "polyreactivity (PSR sort gate)": "high polyreactivity"}, {"sequence": "QVQLVESGGGLVQAGGSLRLSCPASGYIFYRNAMVWYRQAPGKERELVAAITYTGGRTYYADSVKGRFTISRDNAKNTVYLQMNSLNPEDTAVYYCNADGRVFVVRPYYDYEYWGQGTQVTVSS", "polyreactivity (PSR sort gate)": "low polyreactivity"}, {"sequence": "KVQLVESGGGLVQAGGSIRLSFAASGLIFLQYCMGWYRQAPGKERELVAAITTRGGRTYYADSVKGRFTISRDNPKNTVYLQMNSLKPEDTAVYYCAADSEQDNLRYYRWVWYYYWGQGPQVTVSS", "polyreactivity (PSR sort gate)": "low polyreactivity"}, {"sequence": "QVQLVESGGGLVQAGGSLRLSCAASGSTFGRNTMGWYRPAPGKERELVASITRSSTSTYYADSVKGRFTISRDNAKNTVYLQMNSLKPEDTAVYYCAARALRTDRSPVGRHEYWGQGTQVTVSS", "polyreactivity (PSR sort gate)": "low polyreactivity"}, {"sequence": "QVHIVESGEVIVQAGGSLRLSCDASGFTIIQYAMGWYRQAPGKERELVAAISVSGGSTYYADSVKGRFTISRDNAKNTVYLQMNSLKTEDTAVYYCATYGFHSIGSIFEYEYWGQGTQVTVSS", "polyreactivity (PSR sort gate)": "high polyreactivity"}, {"sequence": "QVQLVESGGGLVQAGGSLRLSCAASGSIFDLYAKGWYRQAPGKERELVAGISYSGGSTYYADSVKGRFTISRDNAKNTVYLQMNSLKPEDTAVYYCATAYYYHGGYYYPYDDYWGQGTQVTVSS", "polyreactivity (PSR sort gate)": "low polyreactivity"}, {"sequence": "QVQLVESGGGLVQAGGSLRLSCAASGRTFATYAMGWYRQAPGKERELVAAITSGGSTNYADSVKGRFTISRDNAKNTVYLQMNSLKPEDTAVYYCNAYKTNRGSGPWYTGRYDYWGQGTQVTVSS", "polyreactivity (PSR sort gate)": "low polyreactivity"}, {"sequence": "QVQLVESGGGLVQAGGSLRLSCAASGSTFYANVMGWYRQAPGKERELVAAIRWSGSSTYYADSVKGRFTISRDNAKNTVYLQMNSLKPEDTAVYYCNARYDFSYDYWGQGTQVTVSS", "polyreactivity (PSR sort gate)": "low polyreactivity"}, {"sequence": "QVQLVESGGGLVQAGGSLRLSCAASGSTFTNNDMGWYRPAPGKERELVAAITDSDGITYYADSVKGRFTISRDNAKNTVYLQMNSLKPDDSAVYYCAAYYYGSVAQDREYWGQGTQVTVSS", "polyreactivity (PSR sort gate)": "high polyreactivity"}, {"sequence": "QVQLVESGGGLVQAGGSLRLSCAASGRTFRQYAMGWYRQAPGKERELVATISSGGSTYYADSVKGRFTISRDNAKNTVYLHMNSLKPEDTAVYYCNAEGQWSRAPRDYWGQGTQVTVSS", "polyreactivity (PSR sort gate)": "low polyreactivity"}, {"sequence": "QVQLVESGGGLDQAGGSLRLSCAASGIIFKYYAMGWYRQAPGKERELVAAINYSGGRTYYADSVKGRFTISRDNAKNTVYLQMNSLKPEDTAVYYCAKVPAYADRGKFDYWGQGTQVTVSS", "polyreactivity (PSR sort gate)": "high polyreactivity"}, {"sequence": "QVQLVESGGGLVQAGGSLRLSCAASGFTFRLYAMGWYRQAPGKERELVAAISSRGTTTYYADSVKGRFTNSRDNAKKTGYLQMNSLKPEDTAVYNCNKEYTSYGYDLEYDYWGQGTQVTVSS", "polyreactivity (PSR sort gate)": "low polyreactivity"}, {"sequence": "QVQLVESGGGLVQAGGSLRLSCAASGSTFYRYAMGWYRQAPGKERELVAAITWNGGSTYYADSVKGRFTISRDNAKNTVYLQMNSLKPEDTAVYYCNKVSRRDTYEYDYWGQGTQVTVSS", "polyreactivity (PSR sort gate)": "high polyreactivity"}, {"sequence": "QVQLVESGGGLVQAGGSLRLSCAASGSTFVPYAMGWNRQAPGKERELVASISWRGGSTSYADSVKGRFTISRDNAKNTVYLQMNSLKPEDNAVYYCAARPRYRYKQDYYYWGQGSQVTVSS", "polyreactivity (PSR sort gate)": "high polyreactivity"}, {"sequence": "QVQLVESGGGLVQAGGSLRLSCAASGFTFITNAMGLYRQAPGKERELVASISIGGSTNYADSVKGRFTISRDNAKNTVYLQMNSLKPEDTAVYYCAARVYRRLFLPGRYGRPLGYWGQGTQVTVSS", "polyreactivity (PSR sort gate)": "high polyreactivity"}, {"sequence": "QVQHEESGGGLVQAGGSLRLSCAASGFTFRGYAMGWYRQAPGKERELVAAISRSGGGTYYADSVKGRFTISRDNAKNTVYLQMNSLKPEDTAVYYCAAVYRRTRSWKFDYWGQGTQVTVSS", "polyreactivity (PSR sort gate)": "high polyreactivity"}, {"sequence": "QVQLVESGGGLVQAGGSLRLSCAASGSIFGVYAIGWYRQAPGKERELVATISWSAGSTYYADSVKGRFTISRDNAKNTVYLQMNSLKPEDTAVYYCAAGVRWLGLYDLFTFDYWGQGTQVTVSS", "polyreactivity (PSR sort gate)": "low polyreactivity"}, {"sequence": "QVQLVESGGGLVQAGGSLRLSCAASGRIFYGYAMGWYRQAPGKERELVAAITWSGGRTYYADSVKGRFTISRDNAKNTVYLQMNSLKPEDTAVYYCNRPRRTSPSTYYHWGQGTQVTVSS", "polyreactivity (PSR sort gate)": "low polyreactivity"}, {"sequence": "QVQLVESVGGLVQAGGSLRLSCAASGSTFGIYTMGWYRQAPGKERELVAAISSRGGSTYYADSVKGRFTISRDNAKNTVYLQMNSLKPEDTAVYYCAAVGRSHSRPYTDEYWGQGTQVTVSS", "polyreactivity (PSR sort gate)": "high polyreactivity"}, {"sequence": "QVQLVESVGGLVQAGGSLRLSCAASGSIFSSYAMGWYRQAPGKERELVAAITSGGSTYYADSVKGRFTISRDNAKNTVYLQMNSLKPVDPAVYYCAAREVLTSKLHMGYWGTGTQVTVSS", "polyreactivity (PSR sort gate)": "low polyreactivity"}, {"sequence": "QVQLVESGGGLVQAGGSLRLSCAASGRTFWYYTMGWYIQAPGKERELVASITYRGGSTYYADSVKGRFTISRDNAKNTVYLQMNSLKPEDTAVYYCNARYKRYSYDYWGQGTQVTVSS", "polyreactivity (PSR sort gate)": "high polyreactivity"}, {"sequence": "QVQLVESGGGLVQAGGSLRLRCAASGSIFHSYAMAWYSQAPGKEREMVASITASVDSTYYADSVKGRFTISRDNAKNTVYLQMNSLIPEDTAVYYCAAEAQFNFYSYDFWGQGTQVTVSS", "polyreactivity (PSR sort gate)": "low polyreactivity"}, {"sequence": "QVQLVESGGGLVQAGGSLRLSCAASGSTFVNNVMGWYRQAPGKERELVAAISGRGGNTYYADSVKGRFTISRDNAKNTVYLQMNSLKPEDTAVYYCAPYSWGWSLWTYDYWGQGTQVTVSS", "polyreactivity (PSR sort gate)": "high polyreactivity"}, {"sequence": "QDQLVESGGGLVQAGGSLRLSCGASGGIFWKYAMGWYRQAPGKERELVAAISRSGSSTYYADSVKGRFTISRDNAKNTVYLQMNSLKPEDTAVYYCAAQPYDSNYGNSGYWGQGTQVTVSS", "polyreactivity (PSR sort gate)": "high polyreactivity"}, {"sequence": "QVQLQESGGGMVQAGGCLRLSCAASVTIFDPDYMGWYHQAPGKERELVASISLGRITYYADSVKGRFTINRDNAKNTVFLQMISLKPEDTAVYYCAAVTGLFYHPFYKYNYWGQGTQVTVSS", "polyreactivity (PSR sort gate)": "high polyreactivity"}, {"sequence": "QVQLVESGGGLVQAGGSLRLSCAASGFIFWNYAMGWNRQAPGKERDLVAAISSGGTITKYADSVKGRFTISRDKAKNTVYLQMNSLKPEDTAVYYCNAVVRVRFRKNDYWGQGTQVTVSS", "polyreactivity (PSR sort gate)": "high polyreactivity"}, {"sequence": "QVQLEESAGGLVQAGGSLRLSCAASGSIFRVYGMGWYRQAPGKVTELVASITYRGGNTYYADSVKGRFTISRDNAKNTVYVQMNSLKPEDTAVFDCARSGYQKVGGFRSDYWGQGTEVTVSS", "polyreactivity (PSR sort gate)": "low polyreactivity"}, {"sequence": "QFQLVESGGGLVQAGGSLRLSCAASGRIFVRYAMGWYSQAPGKERQLVAAISKSGGSTYYADSVKGRYTISRDNAKNTVYLQMNSLNPEDTAVDYCAADYTGFFPDGSDVDFDYWGQGTQVTVSS", "polyreactivity (PSR sort gate)": "low polyreactivity"}, {"sequence": "QVQLVESGGGLVQAGGRLRLSCAASGIIFYVYTMGWSRQAPGKERELVAAISGSGGSTTYADSVKGRFTISRDNAKNTVYLQMNSLKPEDTAVYYCNAKKWFYRWWKFSEFDYWGQGTQVTVSS", "polyreactivity (PSR sort gate)": "high polyreactivity"}, {"sequence": "QVQLVESGGGLVQAGGSLRLSCAASGFILEGYAMGWYRQAPGKERELVAAITRRGTRTYYADSVKGRFTISRDNAKNTVYLQMNSLKPEDTAVFYCNAESRSTWVAGYDYWGQGTQVTVSS", "polyreactivity (PSR sort gate)": "high polyreactivity"}, {"sequence": "QVQLQESGGGLVQAGGSLRLSCAASGSSFEELDMGWYRQAPGKEREFVAAIGTGSTTYYADSVKGRLTISRDNAKNTVYLQMNSLKPEDTAVYYCAVDTWARAYLGYWGQGTQVTVSS", "polyreactivity (PSR sort gate)": "high polyreactivity"}, {"sequence": "QVQVVESGGGLVQAGGSLRLSCAASGSILGLYAMGWYRQAPGKERELVAAITYRGGRTDYADSVKGRFTISRDNAKNTVYLQMNCLKPEDTAVYYCAAGYLPRPRYSTSYLYYYWGQGTQVTVSS", "polyreactivity (PSR sort gate)": "high polyreactivity"}, {"sequence": "QEQLVESGGGLVQAGGSLRLICADSGRTLVYYGMGWYRQAPGKERELVAAISGSGGRTYYADSVKGRFTISRDNAKNTVYLQMNSLKPEDTAVYYCAALCRSYPAKYASYDYCGQGTQVTVSS", "polyreactivity (PSR sort gate)": "high polyreactivity"}, {"sequence": "QVQLVESGGGLVQAGGSLRLSCAASGRTFGYYAMGWYRQAPGKERELVAAINSRGGSTYYADSVKGRFTISRDNAKNTVYLQMNSLKPEDTAVYYCAVVRWRHYIFATYDYWGQGTQVTVSS", "polyreactivity (PSR sort gate)": "high polyreactivity"}, {"sequence": "QVQLVESGGGLVQAGGSLRLSCAASGITFVSYGMGWYRQAPGKERELVAAISSGGRTYADSVKGRFTISRDNAKNTVYLQMNSLKPEDTAVYYCNARDYASGTEGDYWGQGTLVTVSS", "polyreactivity (PSR sort gate)": "low polyreactivity"}, {"sequence": "QVQLVESGGGLVQAGGRLRLSCAASGSIFYSNAMGWYRQAPGKEREFVAAISAGGGSTYYADSVKGRFTISRDNAKNTVYLQMNSMKPEDTAVYFCAAQPYKIIYPYDYWGQGTQVTVSS", "polyreactivity (PSR sort gate)": "low polyreactivity"}, {"sequence": "QVQLVESGVGLVQAGGSLRLSCAASGRIFTGYAMGWYRQAPGKERELVAAITSSGDGTNYADSVKGRFTISRDNAKNTVYLQMNSLKPEDTAVYYCNADGSYKMDWGQGTQVTVSS", "polyreactivity (PSR sort gate)": "low polyreactivity"}, {"sequence": "QVQLVESGGGKVQAGGSLRLSCAAYGIIFYPYDMGWNRQSPAKERELVAAISIGGGSTYYADSVKGRFTISRDNAKNTVYLQMNSLKPEDNAVYYCAAGTPYGILGYYYWGQGSQVTVSS", "polyreactivity (PSR sort gate)": "low polyreactivity"}, {"sequence": "QVQLVESGGGLVQAAGSLRLSCAASVGTFTPNVMGWSRKAPGKERELVAAIDDSGSRTYYADSVKGRFTISRVNAKNTVYLQMNSLKPEDTAVYYCAVYWYGTFPMYYWGQGTQVTVSS", "polyreactivity (PSR sort gate)": "low polyreactivity"}, {"sequence": "QVQLVESGGGLDQAGGSLRISCAASGRTFRNYAMGSYRQAPGKERELVPAISFSGGRTYYADSVKGRFTISRDNAKNTVYLQMNSLKPEDTAVYYCAKVSYYRGDGDEDYGYWGQGTQVPVSS", "polyreactivity (PSR sort gate)": "high polyreactivity"}, {"sequence": "QVQLVESGGGLVQAGGSLRLSCAASGRTFSGYAMGWYRQAPGKERELVAAITRRGGTTYYADSVKGRFTISRDNAKNTVYLQMNSLKPEDTAVYYCAAAKPRVISQNIIYDYWGQGTQVTVSS", "polyreactivity (PSR sort gate)": "high polyreactivity"}]}]}
